Publication PMC4614863, “New Insights into the RNA-Binding and E3 Ubiquitin Ligase Activities of Roquins”

Key:
[1] = target: T1, RC3H2 RNA-binding region (HEPN+ROQ), wild type (Homo sapiens, UniProt Q9HBD1 87-404); test: analytical SEC; ITC: 20 mM Tris-HCl pH 8.0, 150 mM NaCl, 1 mM TCEP, 25 C; 200-500 uM RNA injected into 15-30 uM protein, one-site model; conditions: protein: recombinant
T1 sequence: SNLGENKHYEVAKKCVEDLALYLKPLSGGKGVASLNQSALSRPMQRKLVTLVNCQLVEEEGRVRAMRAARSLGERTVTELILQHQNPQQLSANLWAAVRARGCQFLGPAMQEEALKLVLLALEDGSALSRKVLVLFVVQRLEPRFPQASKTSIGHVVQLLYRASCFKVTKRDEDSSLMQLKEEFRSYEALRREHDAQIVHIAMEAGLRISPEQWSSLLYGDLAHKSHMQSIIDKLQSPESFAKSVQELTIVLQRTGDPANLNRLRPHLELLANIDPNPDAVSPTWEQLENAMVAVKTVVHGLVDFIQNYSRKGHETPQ

[2] = target: T1, RC3H2 RNA-binding region (HEPN+ROQ), …; test: ITC; ITC: 20 mM Tris-HCl pH 8.0, 150 mM NaCl, 1 mM TCEP, 25 C; 200-500 uM RNA injected into 15-30 uM protein, one-site model; conditions: protein: recombinant, tags: His6-tag (pET28-MHL N-terminal TEV-cleavable, or pNIC-CH C-terminal uncleavable), removed by TEV where applicable
[3] = target: T2, RC3H2 stem-loop triple mutant (Homo sapiens, UniProt Q9HBD1 87-404, Q244A;Y247A;R248E); test: analytical SEC; 47.3 kDa complex; ITC: 20 mM Tris-HCl pH 8.0, 150 mM NaCl, 1 mM TCEP, 25 C; 200-500 uM RNA injected into 15-30 uM protein, one-site model; conditions: protein: recombinant; tags: His6-tag, removed by TEV where applicable; mixture of hairpin and self-duplex in solution
T2 sequence: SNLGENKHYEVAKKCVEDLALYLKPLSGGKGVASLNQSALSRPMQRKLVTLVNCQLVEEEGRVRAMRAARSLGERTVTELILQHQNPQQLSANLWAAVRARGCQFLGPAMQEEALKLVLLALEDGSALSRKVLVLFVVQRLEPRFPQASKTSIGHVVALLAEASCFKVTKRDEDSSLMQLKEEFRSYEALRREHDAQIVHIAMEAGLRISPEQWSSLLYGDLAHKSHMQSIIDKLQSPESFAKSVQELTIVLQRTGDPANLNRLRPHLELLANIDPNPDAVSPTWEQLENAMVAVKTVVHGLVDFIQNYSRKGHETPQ

[4] = target: T3, RC3H2 quaternary mutant (triple mutant + phosphomimic) (Homo sapiens, UniProt Q9HBD1 87-404, Q244A;Y247A;R248E;S323E); test: ITC; attributed to duplex form of Tnf23; ITC: 20 mM Tris-HCl pH 8.0, 150 mM NaCl, 1 mM TCEP, 25 C; 200-500 uM RNA injected into 15-30 uM protein, one-site model; conditions: protein: recombinant; tags: His6-tag, removed by TEV where applicable; mixture of hairpin and self-duplex in solution
T3 sequence: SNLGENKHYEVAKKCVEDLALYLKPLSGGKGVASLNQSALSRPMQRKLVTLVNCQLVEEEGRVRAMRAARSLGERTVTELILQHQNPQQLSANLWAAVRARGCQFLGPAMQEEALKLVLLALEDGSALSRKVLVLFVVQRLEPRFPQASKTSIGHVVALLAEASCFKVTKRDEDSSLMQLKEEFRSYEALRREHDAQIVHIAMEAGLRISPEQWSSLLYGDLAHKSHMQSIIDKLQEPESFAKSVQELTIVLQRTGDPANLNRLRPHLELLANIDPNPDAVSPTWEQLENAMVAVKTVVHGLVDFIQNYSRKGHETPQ

[5] = target: T1, RC3H2 RNA-binding region (HEPN+ROQ), …; test: crystal structure; duplex contacts HEPN and ROQ; same ASU also has stem-loop RNA; 2.5 A; ITC: 20 mM Tris-HCl pH 8.0, 150 mM NaCl, 1 mM TCEP, 25 C; 200-500 uM RNA injected into 15-30 uM protein, one-site model; conditions: protein: recombinant; tags: His6-tag (pET28-MHL N-terminal TEV-cleavable, or pNIC-CH C-terminal uncleavable); removed by TEV where applicable; antiparallel self-duplex, 2 copies of strand; 10 Watson-Crick bp plus central UGU with U7-U9 wobble pairs
[6] = target: T2, RC3H2 stem-loop triple mutant; test: ITC; ITC: 20 mM Tris-HCl pH 8.0, 150 mM NaCl, 1 mM TCEP, 25 C; 200-500 uM RNA injected into 15-30 uM protein, one-site model; conditions: protein: recombinant; tags: His6-tag, removed by TEV where applicable; hairpin; mainly stem-loop in solution
[7] = tags: His6-tag (pET28-MHL N-terminal TEV-cleavable, or pNIC-CH C-terminal uncleavable), removed by TEV where applicable, hairpin and/or self-duplex

B1: dsICOS (called 24-bp; 23 nt printed) (dsRNA)
RNA 1: UCUUCAGUCUAGACAGUUCGCUU
RNA 2: AAGCGAACUGUCUAGACUGAAGA
B1: binds ([1]; tags: His6-tag (pET28-MHL N-terminal TEV-cleavable, or pNIC-CH C-terminal uncleavable; removed by TEV where applicable; ends not further stated)).

B2: Roquin2 CDE RNA (called 27-nt; 26 nt printed) (structured_RNA)
RNA: UUAAUAACUUCUGUGAAGUUGUUUAC
B2: binds [1, 7].

B3: Tnf23 CDE RNA, 23-nt (structured_RNA)
RNA: ACAUGUUUUCUGUGAAAACGGAG
B3 was tested, and the Kd ([2]; mixture of hairpin and self-duplex in solution) was 144 ± 50 nM, the binding result [3] was “binds” and the Kd [4] was 590 nM.

B4: Ier3 CDE RNA duplex (crystal) (dsRNA)
RNA 1: AUGUUCUGUGAACAC
RNA 2: AUGUUCUGUGAACAC
B4: binds [5].

B5: Roquin CDE RNA, 19-nt (structured_RNA)
RNA: AUAACUUCUGUGAAGUUGC
B5: binds [1, 7].

B6: Ier3 CDE RNA, 15-nt (structured_RNA)
RNA: AUGUUCUGUGAACAC
For B6, the binding result [6] was “no binding” and the Kd ([2]; hairpin, mainly stem-loop in solution) was 356 ± 86 nM.
